{"source": "patent US20150337019", "key": {"[1]": {"test_system": "monomeric form of royalactin"}, "[2]": {"test_system": "MGO-modified MRJP (MRJP mixture treated with MGO)"}, "[3]": {"test_system": "native hexamer form of MRJP1"}}, "data": [{"substance": "Cathepsin B from bovine spleen", "values": [{"measurement": "Cathepsin B digestion (data not shown)", "setting": "[1]", "result": "the native hexamer form of MRJP1 and the monomeric form of royalactin were readily degraded by this enzyme"}, {"measurement": "Cathepsin B digestion, native PAGE", "setting": "[2]", "result": "Cathepsin B is unable to hydrolyze the protein at pH 7.0 but was able to hydrolyze the lower molecular weight species produced at pH 4.0"}, {"measurement": "Cathepsin B digestion (data not shown)", "setting": "[3]", "result": "the native hexamer form of MRJP1 and the monomeric form of royalactin were readily degraded by this enzyme"}]}]}
